Test results reported in the RNAGym collection of RNA variant scans (doi:10.7554/elife.80360).

B1: HDV Ribozyme (parent)
chain: GGCCGGCAUGGUCCCAGCCUCCUCGCUGGCGCCGGCUGGGCAACAUUCCGAGGGGACCGUCCCCUCGGUAAUGGCGAAUGGGACCCA

Variants of: B1
Test: self-cleavage, relative activity (ratio to wild type); higher = more cleavage; co-transcriptional

**Q.** Which self-cleavage does the source give for GGCCGGCAUGGUCCCAGCCUCCUCGCUGGCGCCGGCUGAGCAACAUUCCGAGGGGACCGUGCCCUCGGUAAUGGCGAAUGGGACCCA [G39A C61G] here?
**A.** 0.337

**Q.** With GGCCGGCAUGGUCCCAGCCUCCUCGCUGUCGCCGGCUGGGCAACAUUCCGAGGGGACCGUCCCCUCGGUAAUGGCGAAGGGGACCCA [G29U U79G] as the variant, how does the self-cleavage read?
**A.** 0.0386

**Q.** For GGCCGGCUUGGUCCCAGCCUCCGCGCUGGCGCCGGCUGGGCAACAUUCCGAGGGGACCGUCCCCUCGGUAAUGGCGAAUGGGACCCA [A8U U23G], which self-cleavage is on record?
**A.** 0.415

**Q.** Which self-cleavage does the source give for GGUCGGCAUGGUCCCAGCCUCCUCGCUGGCGCCGGCUGGGCAACAUUCCGAGGAGACCGUCCCCUCGGUAAUGGCGAAUGGGACCCA [C3U G54A] here?
**A.** 0.633

**Q.** With GGCCGGCAUGGUCCCAGCAUCCUCGCUGGCGCCGGCAGGGCAACAUUCCGAGGGGACCGUCCCCUCGGUAAUGGCGAAUGGGACCCA [C19A U37A] as the variant, how does the self-cleavage read?
**A.** 0.0519

**Q.** Which self-cleavage does the source give for GGCCGGCAUGGUCCCAGCCUCCUCUCUGGCGCGGGCUGGGCAACAUUCCGAGGGGACCGUCCCCUCGGUAAUGGCGAAUGGGACCCA [G25U C33G] here?
**A.** 0.119

**Q.** With GGCCGGCAUGGUCCCAGCCUCCUCGCUGGCGCCGGCUGGGCAGCAUUCCGAGGGGACCGUCCCCUCGGUAAUGGCGAAUGGCACCCA [A43G G82C] as the variant, how does the self-cleavage read?
**A.** 0.131

**Q.** For GGCAGGCAUGGUCCCAGCCUCCUCGCUGGCGCCGGCUGGGCAACAUUCCGAGGGGGCCGUCCCCUCGGUAAUGGCGAAUGGGACCCA [C4A A56G], which self-cleavage is on record?
**A.** 0.217

**Q.** Which self-cleavage does the source give for UGCCGGCAUGGUCCCAGCCUCCUCGCUGGCGCCGGCUGGGCAACAUUCCGAGGGGACCGUCCCCUCGGCAAUGGCGAAUGGGACCCA [G1U U69C] here?
**A.** 0.259

**Q.** With GGCCGGUAUGGUCCCAGUCUCCUCGCUGGCGCCGGCUGGGCAACAUUCCGAGGGGACCGUCCCCUCGGUAAUGGCGAAUGGGACCCA [C7U C18U] as the variant, how does the self-cleavage read?
**A.** 0.277

**Q.** With GGCCGGCAUGGUCACAGCCUCCUCGCUGGCGCCGGCUGGGCAACAUUCCGAGGGGACCGUCACCUCGGUAAUGGCGAAUGGGACCCA [C14A C62A] as the variant, how does the self-cleavage read?
**A.** 1.06

**Q.** With GGCCGGCAUGGUCCCAGGCUCCUCGCUGGCGCCUGCUGGGCAACAUUCCGAGGGGACCGUCCCCUCGGUAAUGGCGAAUGGGACCCA [C18G G34U] as the variant, how does the self-cleavage read?
**A.** 0

**Q.** For GGCCGGCAUGGUCCCAGCCUCCUCGCUGGAGCCGGCUGGGCAACAUUUCGAGGGGACCGUCCCCUCGGUAAUGGCGAAUGGGACCCA [C30A C48U], which self-cleavage is on record?
**A.** 0.533

**Q.** Which self-cleavage does the source give for GGCCGGCAAGGUCCCAUCCUCCUCGCUGGCGCCGGCUGGGCAACAUUCCGAGGGGACCGUCCCCUCGGUAAUGGCGAAUGGGACCCA [U9A G17U] here?
**A.** 0.383

**Q.** For GGCCGGCCUGGUUCCAGCCUCCUCGCUGGCGCCGGCUGGGCAACAUUCCGAGGGGACCGUCCCCUCGGUAAUGGCGAAUGGGACCCA [A8C C13U], which self-cleavage is on record?
**A.** 0.356

**Q.** With GGACGGCAUGGUCCCAGCCUCCUCGCUGGCGCCGGCUGGGCAACAUUCCGAGGGGACCGUCCCCUCGGUAAUGGCGUAUGGGACCCA [C3A A77U] as the variant, how does the self-cleavage read?
**A.** 0.224

**Q.** With GGCCGGCAUGGUCCCAGCCUCCUCGCUGGCGCCGGCUGGACCACAUUCCGAGGGGACCGUCCCCUCGGUAAUGGCGAAUGGGACCCA [G40A A42C] as the variant, how does the self-cleavage read?
**A.** 0.543

**Q.** For GGCCGGCCUGCUCCCAGCCUCCUCGCUGGCGCCGGCUGGGCAACAUUCCGAGGGGACCGUCCCCUCGGUAAUGGCGAAUGGGACCCA [A8C G11C], which self-cleavage is on record?
**A.** 0.151

**Q.** Which self-cleavage does the source give for GGCCGGCAUGUUCCCAGCCUCCUCGCUGGCGCCGGCUGGGCAACAUUCCGAGGCGACCGUCCCCUCGGUAAUGGCGAAUGGGACCCA [G11U G54C] here?
**A.** 0.57

**Q.** Which self-cleavage does the source give for GGCCAGCAUGGUCCCAGCCUCCUCGCUGGCGCCGGCUGGGCAACAUUCCGAGGGGACCGUCCCCUCGGUAAUGGCGAAUGGGACGCA [G5A C85G] here?
**A.** 0.147

**Q.** Which self-cleavage does the source give for GGCCGGCAUGGUCCCAGCCUCCUCGCUGGCGCCGGCAGGGCAACAUUCCGAGGGGACCGUCCCCUCGGUAAUGGCGAAGGGGACCCA [U37A U79G] here?
**A.** 0

**Q.** Which self-cleavage does the source give for GGCCGGCCUGGUCACAGCCUCCUCGCUGGCGCCGGCUGGGCAACAUUCCGAGGGGACCGUCCCCUCGGUAAUGGCGAAUGGGACCCA [A8C C14A] here?
**A.** 0.375

**Q.** Which self-cleavage does the source give for GGCCGGCAUGGUCCCAGCCUCCUCGCUGGCGCCGGCUGGGCAACGUUCCGAGGGGACCGUCCCCUCGCUAAUGGCGAAUGGGACCCA [A45G G68C] here?
**A.** 0.767

**Q.** With GGCCGGCAUGGUUCCAGCCUCCUCGCUGGCGCCGGCUGGGCAACAUUCCGAGGGGACCGUCCCCUCGGUAAUGGCGAAUGGGACUCA [C13U C85U] as the variant, how does the self-cleavage read?
**A.** 0.332

**Q.** For GGCCGGCAUGGUCCCAGCCUCCUCGCUGGCGCCGGCUGGGCAACAUUCCUAGGGGAUCGUCCCCUCGGUAAUGGCGAAUGGGACCCA [G50U C57U], which self-cleavage is on record?
**A.** 1.17

**Q.** Which self-cleavage does the source give for GGCCGGCAUUGUCCCAGUCUCCUCGCUGGCGCCGGCUGGGCAACAUUCCGAGGGGACCGUCCCCUCGGUAAUGGCGAAUGGGACCCA [G10U C18U] here?
**A.** 0.12

**Q.** With GGCCGGCAAGGUCCCAGCCUCCUCGCUGGCGCCGGCCGGGCAACAUUCCGAGGGGACCGUCCCCUCGGUAAUGGCGAAUGGGACCCA [U9A U37C] as the variant, how does the self-cleavage read?
**A.** 1.07

**Q.** For GGCCGGCAUGGUCCCAGCCUACUCGCUGGCGCCGGCUGGGCAACAUUCCGAGGGGACCGUCCCCUCGGUAAUGGCAAAUGGGACCCA [C21A G76A], which self-cleavage is on record?
**A.** 0.256

**Q.** Which self-cleavage does the source give for GGCCGGCUUGGUCCCAGCCUCCUCGCUGGCCCCGGCUGGGCAACAUUCCGAGGGGACCGUCCCCUCGGUAAUGGCGAAUGGGACCCA [A8U G31C] here?
**A.** 0.115

**Q.** With GGCCGGCAUGGUCCCAGCCUCCUCGCCGGCGCCGGCUGGGCAACAUUCCGAGGGGACCGCCCCCUCGGUAAUGGCGAAUGGGACCCA [U27C U60C] as the variant, how does the self-cleavage read?
**A.** 0.677

**Q.** With GGCCGGCAUGGUCCGAGCCUCCUCGCUGGCGCCGGCUGGGCAACAUUCCGAGGGGACCGUCCCCUCGGUAAUGGCGAAUGGCACCCA [C15G G82C] as the variant, how does the self-cleavage read?
**A.** 0.111

**Q.** Which self-cleavage does the source give for GGCCGGCAUGGUCCCCGCCUCCUCGCUGGCGCCGGCUGGGCAACAUUCCGAGGGGACCGUCCCCUCGGUAAUGGCGAAUAGGACCCA [A16C G80A] here?
**A.** 0.406
